Results taken from US20200339690A1 (JOUNCE THERAPEUTICS, published 2020).

Columns and labels:
[1] = biological target: T1, human LILRB2 expressed on cells (human, UniProt Q8N423 22-597); experiment: cell-based or functional assay
[2] = biological target: T2, human LILRA1 (human, UniProt O75019 17-489); experiment: flow cytometry, LILRA1 CHOs
T2 construct: Over-expressed on CHO-s cells; also called hLILRA1
Protocol: (§1) To test for specificity to hLILRB2 and not towards any of the ten LILR family members, a multiplexed cell-based barcoding approach was used by staining cells with Far Red and/or Violet Cell Trace dyes (Thermo Scientific) according to manufacturer's protocol or left unstained. In brief, cells were washed twice with 1×DPBS and then incubated with diluted dye in 1×DPBS for 20 minutes at 37° C., mixing gently every 5-10 minutes. Dye labeling was quenched by adding equal volume of 100% HI-FBS (Sigma) to the cells. Note that LILRB1, LILRB2, LILRB3, LILRB4, and LILRB5 cell lines are also GFP-positive, while LILRA1, LILRA2, LILRA3, LILRA4, LILRA5, and LILRA6 cell lines are GFP-negative. The cells were then washed twice in 1×DPBS and then all 11 cell lines were combined per well in a 96-well round bottom tissue-culture treated plate. At least 25×10³ cells of each cell-line were plated per well. Cells were then re-suspended in primary antibody (anti-LILRB2 mAbs or control) prepared in FACS buffer (1×DPBS containing 2% HI-FBS (Sigma)+0.05% Sodium Azide). After incubation at 4° C. for 30 minutes, cells were washed twice with 1×DPBS and re-suspended in anti-human IgG-PE (BioLegend) diluted 1:200 in FACS buffer. Following a 30 minute incubation at 4° C., protected from light, cells were washed in 1×DPBS and re-suspended in fix buffer (1.5% paraformaldehyde diluted in 1×DPBS). Samples were analyzed using the Celesta flow cytometer analyzer (BD Biosciences). Geometric mean fluorescence intensity (gMFI) of PE was determined for each antibody across each cell line. Background MFI was detected with isotype control and relative binding of antibodies tested was measured as a fold over isotype.

[3] = biological target: T3, human LILRA2 (human, UniProt Q8N149 24-483); experiment: flow cytometry, LILRA2 CHOs
T3 construct: Over-expressed on CHO-s cells; also called hLILRA2
Protocol: as §1

[4] = biological target: T4, human LILRA3 (human, UniProt Q8N6C8 24-439); experiment: flow cytometry, LILRA3 CHOs
T4 construct: Over-expressed on CHO-s cells; also called hLILRA3
Protocol: as §1

[5] = biological target: T5, human LILRA4 (human, UniProt P59901 24-499); experiment: flow cytometry, LILRA4 CHOs
T5 construct: Over-expressed on CHO-s cells; also called hLILRA4
Protocol: as §1

[6] = biological target: T6, human LILRA5 (human, UniProt A6NI73 42-299); experiment: flow cytometry, LILRA5 CHOs
T6 construct: Over-expressed on CHO-s cells; also called hLILRA5
Protocol: as §1

[7] = biological target: T7, human LILRA6 (human, UniProt Q6PI73 24-481); experiment: flow cytometry, LILRA6 CHOs
T7 construct: Over-expressed on CHO-s cells; also called hLILRA6
Protocol: as §1

[8] = biological target: T8, human LILRB1 (human, UniProt Q8NHL6 24-650); experiment: flow cytometry, LILRB1 CHOs
T8 construct: Over-expressed on CHO-s cells; also called hLILRB1
Protocol: as §1

[9] = biological target: T1, human LILRB2 expressed on cells; experiment: flow cytometry, LILRB2 CHOs
[10] = biological target: T9, human LILRB3 (human, UniProt O75022 24-631); experiment: flow cytometry, LILRB3 CHOs
T9 construct: Over-expressed on CHO-s cells; also called hLILRB3
Protocol: as §1

[11] = biological target: T10, human LILRB4 (human, UniProt Q8NHJ6 22-448); experiment: flow cytometry, LILRB4 CHOs
T10 construct: Over-expressed on CHO-s cells; also called hLILRB4
Protocol: as §1

[12] = biological target: T11, human LILRB5 (human, UniProt O75023 24-590); experiment: flow cytometry, LILRB5 CHOs
T11 construct: Over-expressed on CHO-s cells; also called hLILRB5
Protocol: as §1

[13] = biological target: T1, human LILRB2 expressed on cells; experiment: flow cytometry, binding to hLILRB2 CHOs
[14] = biological target: T1, human LILRB2 expressed on cells; experiment: HLA-G:LILRB2 blocking; HLA-G tetramer on primary human macrophages, flow cytometry
Protocol: (§2) The potency of select humanized variants in blocking the interaction of HLA-G and HLA-A2 with primary human macrophage-expressed hLILRB2 were assessed. Primary human monocytes were differentiated into macrophages in the presence of M-CSF. After seven days of differentiation, 1×10⁵ HMDMs were plated in 96-well round-bottom tissue culture-treated plate and washed twice with 1×DPBS (Gibco) and then incubated with 50 μL primary antibody (anti-LILRB2 mAbs or control) prepared in FACS buffer (1×DPBS containing 2% HI-FBS (Sigma)+0.05% Sodium Azide). After incubation with mAbs for 30 minutes at 4° C., cells were washed twice in FACS buffer and then resuspended in 50 μL of FACS buffer containing 5 μg/mL APC-conjugated HLA-G or HLA-A2 tetramer (Fred Hutch). Cells were incubated protected from light for 30-60 minutes at 4° C. After incubation with tetramer, cells were washed in FACS buffer and re-suspended in fix buffer (1.5% paraformaldehyde diluted in 1×DPBS). Samples were analyzed using the Celesta flow cytometer analyzer (BD Biosciences).

[15] = biological target: T1, human LILRB2 expressed on cells; experiment: HLA-A2:LILRB2 blocking; HLA-A2 tetramer on primary human macrophages, flow cytometry
Protocol: as §2

[16] = biological target: human LILRB2-His (human, UniProt Q8N423 22-460); experiment: SPR, Sierra Sensors MASS-2; antibody captured on anti-human Fc, LILRB2-His 65 to 0.27 nM, 1:1 Langmuir fit
Protocol: Using a Mass-2 (Sierra Sensors) high capacity amine chip preimmobilized with AffiniPure Goat Anti-Human IgG, Fcγ Fragment Specific antibody, humanized antibodies were captured on the anti-human surface and then binding to human LILRB2-His was measured by flowing six different concentrations from 65 to 0.27 nM of the analyte over the antibody surface. The anti-LILRB2 surface was removed (10 mM Glycine, pH 2.0) and recaptured between all concentrations or buffer only cycles. The data was analyzed using the Sierra Analyzer software (version 3.1.14). All curves were double subtracted and fit to a 1:1 Langmuir Fit.

T1 sequence (Q8N423 other isoform, or with tags, fused parts or gaps limits assumed): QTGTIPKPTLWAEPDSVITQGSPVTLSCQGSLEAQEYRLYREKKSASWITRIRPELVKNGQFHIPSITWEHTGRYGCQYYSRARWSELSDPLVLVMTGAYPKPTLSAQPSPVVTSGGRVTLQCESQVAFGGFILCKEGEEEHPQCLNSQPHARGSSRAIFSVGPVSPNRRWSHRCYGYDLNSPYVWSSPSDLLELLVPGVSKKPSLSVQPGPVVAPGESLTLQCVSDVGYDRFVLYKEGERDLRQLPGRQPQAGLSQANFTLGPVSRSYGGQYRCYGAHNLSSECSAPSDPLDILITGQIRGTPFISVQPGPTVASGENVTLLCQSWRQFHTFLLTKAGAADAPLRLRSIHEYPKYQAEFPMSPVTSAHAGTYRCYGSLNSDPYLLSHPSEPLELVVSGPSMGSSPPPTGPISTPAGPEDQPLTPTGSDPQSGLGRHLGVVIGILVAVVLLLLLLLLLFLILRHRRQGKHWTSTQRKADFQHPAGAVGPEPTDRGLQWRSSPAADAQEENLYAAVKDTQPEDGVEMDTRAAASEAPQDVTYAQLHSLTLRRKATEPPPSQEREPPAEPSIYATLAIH
human LILRB2-His, sequence (Q8N423 other isoform, or with tags, fused parts or gaps): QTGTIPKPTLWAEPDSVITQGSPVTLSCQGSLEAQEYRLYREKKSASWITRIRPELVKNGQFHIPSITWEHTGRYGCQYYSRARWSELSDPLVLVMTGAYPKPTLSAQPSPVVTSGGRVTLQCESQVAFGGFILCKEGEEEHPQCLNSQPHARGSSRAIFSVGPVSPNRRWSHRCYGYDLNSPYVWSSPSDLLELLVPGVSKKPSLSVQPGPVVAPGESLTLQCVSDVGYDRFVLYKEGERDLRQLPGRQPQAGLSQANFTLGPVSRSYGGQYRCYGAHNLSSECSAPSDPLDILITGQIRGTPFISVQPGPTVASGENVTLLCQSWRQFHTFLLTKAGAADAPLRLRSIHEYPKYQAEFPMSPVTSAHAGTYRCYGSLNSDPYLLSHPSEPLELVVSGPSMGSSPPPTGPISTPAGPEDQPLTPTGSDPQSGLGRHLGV
T3 sequence (Q8N149 24-483 S135L limits assumed): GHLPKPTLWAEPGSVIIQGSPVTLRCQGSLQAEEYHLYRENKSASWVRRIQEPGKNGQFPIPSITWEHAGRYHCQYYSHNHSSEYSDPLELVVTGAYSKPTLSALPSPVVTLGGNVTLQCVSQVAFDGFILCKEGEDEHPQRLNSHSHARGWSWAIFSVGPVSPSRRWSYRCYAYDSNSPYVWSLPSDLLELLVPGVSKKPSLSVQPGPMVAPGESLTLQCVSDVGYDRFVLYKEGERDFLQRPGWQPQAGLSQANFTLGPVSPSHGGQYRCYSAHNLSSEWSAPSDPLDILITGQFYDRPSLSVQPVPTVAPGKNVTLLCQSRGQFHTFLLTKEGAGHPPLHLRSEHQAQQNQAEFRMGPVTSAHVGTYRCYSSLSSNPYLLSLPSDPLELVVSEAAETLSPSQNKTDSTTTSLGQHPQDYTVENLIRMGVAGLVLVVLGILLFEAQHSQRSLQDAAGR
T7 sequence (Q6PI73 24-481 limits assumed): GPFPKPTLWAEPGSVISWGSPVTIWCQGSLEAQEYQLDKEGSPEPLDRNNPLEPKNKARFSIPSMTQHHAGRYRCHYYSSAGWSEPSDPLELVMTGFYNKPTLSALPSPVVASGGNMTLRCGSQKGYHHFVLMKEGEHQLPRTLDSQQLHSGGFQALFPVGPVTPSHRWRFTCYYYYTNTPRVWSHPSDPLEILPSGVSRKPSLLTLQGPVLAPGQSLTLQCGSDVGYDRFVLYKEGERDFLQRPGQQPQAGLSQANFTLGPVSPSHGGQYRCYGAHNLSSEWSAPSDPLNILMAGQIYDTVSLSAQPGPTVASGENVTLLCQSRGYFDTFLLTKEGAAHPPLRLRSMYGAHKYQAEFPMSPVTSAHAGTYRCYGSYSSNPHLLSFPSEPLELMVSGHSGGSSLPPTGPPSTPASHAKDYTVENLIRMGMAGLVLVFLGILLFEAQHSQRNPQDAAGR
T4 sequence (Q8N6C8 24-439 limits assumed): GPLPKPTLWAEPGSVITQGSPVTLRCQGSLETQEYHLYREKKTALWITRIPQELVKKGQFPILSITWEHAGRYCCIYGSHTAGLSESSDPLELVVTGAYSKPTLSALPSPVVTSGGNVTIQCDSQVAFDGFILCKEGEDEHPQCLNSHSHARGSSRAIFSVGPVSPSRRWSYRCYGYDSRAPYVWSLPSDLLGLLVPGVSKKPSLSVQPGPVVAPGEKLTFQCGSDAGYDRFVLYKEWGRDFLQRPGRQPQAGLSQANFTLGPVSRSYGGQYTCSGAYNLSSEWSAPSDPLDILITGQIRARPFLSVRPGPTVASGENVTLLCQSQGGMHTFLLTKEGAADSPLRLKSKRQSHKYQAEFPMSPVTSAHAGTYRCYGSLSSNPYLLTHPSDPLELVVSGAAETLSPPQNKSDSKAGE
T11 sequence (O75023 24-590 P542R limits assumed): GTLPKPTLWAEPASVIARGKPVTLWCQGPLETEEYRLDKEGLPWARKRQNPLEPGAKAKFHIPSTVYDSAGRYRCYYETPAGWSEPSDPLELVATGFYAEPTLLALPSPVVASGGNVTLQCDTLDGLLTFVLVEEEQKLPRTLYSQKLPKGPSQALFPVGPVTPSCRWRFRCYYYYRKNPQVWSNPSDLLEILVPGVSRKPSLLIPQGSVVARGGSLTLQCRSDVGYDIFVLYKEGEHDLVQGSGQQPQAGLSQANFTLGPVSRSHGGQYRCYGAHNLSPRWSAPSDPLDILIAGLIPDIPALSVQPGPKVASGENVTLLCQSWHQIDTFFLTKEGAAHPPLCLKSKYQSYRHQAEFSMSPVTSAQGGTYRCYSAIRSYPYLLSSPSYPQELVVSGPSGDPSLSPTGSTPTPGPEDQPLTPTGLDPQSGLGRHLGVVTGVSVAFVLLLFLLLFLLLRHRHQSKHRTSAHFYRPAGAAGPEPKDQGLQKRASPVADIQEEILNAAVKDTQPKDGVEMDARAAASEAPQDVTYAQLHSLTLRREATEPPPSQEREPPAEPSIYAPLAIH
T8 sequence (Q8NHL6 24-650 limits assumed): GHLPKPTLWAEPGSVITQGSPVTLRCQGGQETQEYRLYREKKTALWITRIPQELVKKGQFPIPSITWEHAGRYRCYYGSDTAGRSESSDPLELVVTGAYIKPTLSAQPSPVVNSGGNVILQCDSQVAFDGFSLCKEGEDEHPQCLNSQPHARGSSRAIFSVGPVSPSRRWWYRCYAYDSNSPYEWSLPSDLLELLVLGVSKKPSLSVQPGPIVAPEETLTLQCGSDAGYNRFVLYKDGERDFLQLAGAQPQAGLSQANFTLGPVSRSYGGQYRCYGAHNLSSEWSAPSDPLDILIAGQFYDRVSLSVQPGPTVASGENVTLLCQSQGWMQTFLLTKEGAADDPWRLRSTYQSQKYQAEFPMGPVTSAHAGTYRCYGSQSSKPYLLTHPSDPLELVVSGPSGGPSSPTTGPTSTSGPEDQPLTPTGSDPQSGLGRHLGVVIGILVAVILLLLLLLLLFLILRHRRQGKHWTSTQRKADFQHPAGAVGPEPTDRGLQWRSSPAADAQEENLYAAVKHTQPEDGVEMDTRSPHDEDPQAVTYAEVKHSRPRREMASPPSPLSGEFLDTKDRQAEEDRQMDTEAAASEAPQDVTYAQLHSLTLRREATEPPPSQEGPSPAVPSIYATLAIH
T5 sequence (P59901 other isoform, or with tags, fused parts or gaps limits assumed): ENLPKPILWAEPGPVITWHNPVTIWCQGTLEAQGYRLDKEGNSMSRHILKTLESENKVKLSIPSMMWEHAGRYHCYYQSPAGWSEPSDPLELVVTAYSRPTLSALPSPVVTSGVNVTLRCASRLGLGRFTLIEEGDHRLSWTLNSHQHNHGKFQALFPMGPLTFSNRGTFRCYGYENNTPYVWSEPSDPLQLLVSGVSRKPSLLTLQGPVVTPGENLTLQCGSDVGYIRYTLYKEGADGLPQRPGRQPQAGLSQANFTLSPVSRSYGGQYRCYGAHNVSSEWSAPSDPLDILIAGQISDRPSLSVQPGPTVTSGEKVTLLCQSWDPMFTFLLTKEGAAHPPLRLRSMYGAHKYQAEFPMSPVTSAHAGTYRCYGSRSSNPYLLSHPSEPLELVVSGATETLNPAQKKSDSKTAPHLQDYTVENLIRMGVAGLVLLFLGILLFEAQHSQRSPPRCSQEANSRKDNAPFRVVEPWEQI
T2 sequence (O75019 17-489 limits assumed): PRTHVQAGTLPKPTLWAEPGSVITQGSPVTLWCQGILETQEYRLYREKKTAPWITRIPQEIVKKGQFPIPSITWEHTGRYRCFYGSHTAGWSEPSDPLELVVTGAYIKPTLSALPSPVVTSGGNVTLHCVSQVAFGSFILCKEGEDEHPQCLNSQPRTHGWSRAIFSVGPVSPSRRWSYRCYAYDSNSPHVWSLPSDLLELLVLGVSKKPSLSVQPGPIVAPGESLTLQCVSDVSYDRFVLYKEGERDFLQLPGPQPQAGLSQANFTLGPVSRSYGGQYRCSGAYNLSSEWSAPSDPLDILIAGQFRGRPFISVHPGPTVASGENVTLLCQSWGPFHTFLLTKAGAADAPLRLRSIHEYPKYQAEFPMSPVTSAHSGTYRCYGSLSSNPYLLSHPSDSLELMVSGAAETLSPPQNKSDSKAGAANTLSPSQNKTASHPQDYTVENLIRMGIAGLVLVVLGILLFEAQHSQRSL
T6 sequence (A6NI73 42-299 limits assumed): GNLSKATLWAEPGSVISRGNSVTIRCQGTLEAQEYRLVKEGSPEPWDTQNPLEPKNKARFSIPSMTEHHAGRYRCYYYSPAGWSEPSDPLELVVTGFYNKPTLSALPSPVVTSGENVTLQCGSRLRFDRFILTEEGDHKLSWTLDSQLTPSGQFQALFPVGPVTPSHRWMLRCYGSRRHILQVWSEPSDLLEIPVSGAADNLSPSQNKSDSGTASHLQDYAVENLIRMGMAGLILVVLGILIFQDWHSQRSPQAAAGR

EC50, IL-6 production by LPS-stimulated HMDMs [1]: 0.186 nM | EC50, TNFa production by LPS-stimulated HMDMs [1]: 0.12 nM | IC50, CCL2 production by LPS-stimulated HMDMs [1]: 0.011 nM | IC50, IL-10 production by LPS-stimulated HMDMs [1]: 0.702 nM | binding (fold over iso) [2]: 0.89 fold over iso | binding result [2]: no binding | binding (fold over iso) [3]: 0.66 fold over iso | binding result [3]: no binding | binding (fold over iso) [4]: 0.83 fold over iso | binding result [4]: no binding | binding (fold over iso) [5]: 0.84 fold over iso | binding result [5]: no binding | binding (fold over iso) [6]: 0.86 fold over iso | binding result [6]: no binding | binding (fold over iso) [7]: 0.74 fold over iso | binding result [7]: no binding | binding (fold over iso) [8]: 0.73 fold over iso | binding result [8]: no binding | binding (fold over iso) [9]: 74.5 fold over iso | binding (fold over iso) [10]: 0.81 fold over iso | binding result [10]: no binding | binding (fold over iso) [11]: 0.9 fold over iso | binding result [11]: no binding | binding (fold over iso) [12]: 0.76 fold over iso | binding result [12]: no binding | EC50 [13]: 0.447 nM | EC50 [14]: 0.122 nM | EC50 [15]: 0.087 nM | Kd [16]: 4.58 nM | koff [16]: 0.00238 s⁻¹ | kon [16]: 521000 M⁻¹ s⁻¹
B1: J-19.h2 (antibody, human IgG4 S228P, kappa, V domains shown)
VH: QITLKESGPTLVKPTQTLTLTCTFSGFSLNTYAMGVSWIRQPPGKALEWLASIWWNGNKYNNPSLKSRLTVTKDTSKNQVVLTMTNMDPVDTATYYCAHSRIIRFTDYVMDAWGQGTLVTVSS
VL: DIVMTQSPSSLSASVGDTVTITCRASEDIYNDLAWYQQKPGKAPQLLLYNANSLHTGVPSRFSGSGSGTDYTLTISTLQPEDFATYYCQQYYDYPLTFGPGTKVHIKR
notes: Humanized, human IgG4 backbone
